The record followed here is patent publication US20060286112A1.

The chains are these.
B1: 3.2 (antibody, V domains shown)
VH: QVQLVESGGGVVQPGRSLRLSCAASGFTFSSYGIHWVRQAPGKGLEWVAVIWYDGSDIYYADSVKGRFTISRDNSKNTLYLQMNSLRAEDTALYYCARESSGWTFDYWGQGTLVTVSS
VL: QSALTQPASVSGSPGQSITISCTGTSSDVGGYNYVSWYQQHPGKAPKLMIYEVSNRPSGISNRFSGSKSGNTASLTISGLQAEDEADYYCSSYTSSSTIIFGGGTKLTVL
B2: 2.19 (antibody, V domains shown)
VH: QVQLQESGPGLVKPSETLSLTCTVSGDSISSYYWSWIRQPPGKGLEWIGYVYYSGSTNYNPSLKSRVTMSVDTSKNQFSLKLSSVTAADTAVYYCARDLELYAFDIWGQGTMVTVSS
VL: EIVLTQFPGTLSLSPGERVTLSCRASQSVSSTYVVWYQQKPGQAPRLLIYGASSRATGIPDRFSGSGSGTDFTLTISRLEPEDFAVYYCQQHGSSPWTFGQGTKVEIK
B3: 2.25 (antibody, V domains shown)
VH: QVQLQQSGPGLVKPSQTLSLTCAISGDSVSSNSAAWNWIRQSPSRGLEWLGRTYYMSKWYNDYAVSVKSRITINPDTSKNQFSLQLNSVTPEDTAVYYCARARYCGGDCYDFDYWGQGTLVTVSS
VL: DIQMTHSPSSLSASVGDRVTITCRASQSISISLNWYQQKPGNAPKLLIYAASSLQSGIPSRFSGSGSGTDFTLTISSLQPEDFATYYCQQSFSTPWTFGQGTKVEIK
B4: 10.1 (antibody, V domains shown)
VH: QVQLQQSGPGLVKPSETLSLTCTVSGASISSYYWSWIRQPAGKGLEWIGRIYASGSTNYNPSLKSRVTMSVDTSKSQFSLNLSSVTAADTAVYYCAREGWERLQDYYYYGLDVWGQGTTVTVSS
VL: B2 VL with F7S, V19A, S31R, T32N, V34L, V35A, Y37N, H92Y, W97L, Q101G
B5: 6.17 (antibody, V domains shown)
VH: EVQLVQSGAEVKKPGESLRISCKGSGYSVSSYWIGWVRQMPGKGLEWMGIIYPGDSDTRYSPSFQGQVTISADKSISTAFLQWISLKASDTAMYYCARLQGDCSGGSCYGHFDYWGQGTLVTVS
VL: EIVLTQSPGTLSLSPGERATLSCRASQTISSGYLAWYQQKPAQAPRLLIYVASRRATGIPDRFSGSGSGTDFTLTISRLEPEDFAVYYCQQYGSSSWTFGQGTTVEIK
B6: 6.18 (antibody, V domains shown)
VH: B5 VH with S30T, F80Y, I84S, S107T
VL: B5 VL with T28S, I29V, G32S, S94T
B7: 6.48 (antibody, V domains shown)
VH: B5 VH with Y114C
VL: DVVLTQSPLSLPVTLGQPASISCRSSQSLVNSDGDTYLSWFQQWPGQSPRRLFYEVSNWDSGVPDRFSGSGSGTDFTLKISRVEAEDVGVYYCMQGTHWLTFGGGTKVEIK
B8: 2.7 (antibody, V domains shown)
VH: EVQLVESGGGLVKPGGSLRLSCAASGFTFSNAWMSWVRQAPGKGLEWVGRIKRKTDGETTDYAAPVKGRFTISRDDSRNTLYLQMNSLKTEDTAVYYCTIYTYYYGMDVWGQGTTVTVSS
VL: B3 VL with H6Q, S30N, I31N, S32Y, N42K, Q55E, I58V, F92Y, W96P
B9: 2.11 (antibody, V domains shown)
VH: QVQLQESGPGLVKPSQTLSLTCTVSGGSINSGGYYWSWIRQHPGKGLEWIGYIFYSGSTYYNPSLKSRVNISVDTSKNQFSLKMSSVTAADTAVYYCARDQDGFDYWGQGTLVTVSS
VL: DIVMTQTPLSLPVTPGEPASISCRSSQSLLDSDDGNTYLDWYLQKPGQSPQLLIYTLSYRASGVPDRFSGSGSGTDFTLKISRVEAEDVGVYYCMQRIEFPWTFGQGTKVEIK
B10: 6.3 (antibody, V domains shown)
VH: QVLLQESGPGLVKPSQTLSLTCTVSGGSISSGGYYWSWIRQHPGKGLEWIGYINYSGSAYYNPSLKSRVTISVDTSKNQFSLKLSSVTAADTAVYYCARDHWLLRGFDYWGQGTLVTVSS
VL: DIVMTQTPLSLSVTPGQPASISCKSSQSLLHSDGKTYLYWYLQKPGQPPQLLIYEVSNRFSGVPDRFSGSGSGTDFTLKISRVEAEDVGVYYCMQSIQLPRTFGQGTKVEIK
B11: 2.1 (antibody, V domains shown)
VH: QVQLQESGPGLVKPSQTLSLTCTVSGGSISSGGYYWSWIRQHPGKGLEWIGYIYNSGSTYYNPSLKSRGTISADTSKNQFSLKLSSVTAADTAVYYCARGSSSYYWYFDLWGRGTLVTVSS
VL: DIQMTQSPSSMSASVGDRVTITCRASQRISSNLNWYQQKPGKAPKFLIYGASSLQSGVPSRFSGSGSGTDFTLTISSLRPEDFATYYCQQSYSTPYTFGPGTKVDIK

Where a chain is given by its changes, count along the chain named.

I domain-GST, recombinant GST fusion protein containing amino acids 127-340 of the human VLA-1 α1 subunit (human), sequence (P56199 151-364 limits assumed, form in doubt): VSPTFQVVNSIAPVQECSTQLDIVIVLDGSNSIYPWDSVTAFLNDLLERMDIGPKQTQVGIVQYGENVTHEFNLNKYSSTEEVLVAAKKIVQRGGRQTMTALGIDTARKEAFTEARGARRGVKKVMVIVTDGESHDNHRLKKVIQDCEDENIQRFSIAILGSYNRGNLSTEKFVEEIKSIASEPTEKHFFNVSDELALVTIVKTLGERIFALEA

Substrate in one experiment: I domain-GST, recombinant GST fusion protein containing amino acids 127-340 of the human VLA-1 α1 subunit (human) (UniProt P56199)
The experiment in a line: SPR, mAb captured on anti-human IgG, I domain-GST in solution, 1 mM Mg2+. On the technique in general: Surface plasmon resonance follows binding to a sensor surface in real time, without labels.
Turning to B1, the Kd was 0.04 nM, the koff was 1.43e-05 s⁻¹ and the kon is 354000 M⁻¹ s⁻¹.
The matching figures for B2: 0.243 nM, 0.000131 s⁻¹ and 538000 M⁻¹ s⁻¹.
Consider B3, for which the Kd stood at 1.57 nM, the koff was determined as 1.3e-05 s⁻¹ and the kon stood at 8300 M⁻¹ s⁻¹.

For the next experiment, the target named is biotinylated I domain-GST (human) (UniProt P56199). The experiment in a line: competition: I domain-btn binding to immobilized collagen IV, streptavidin-HRP.
Take B1: the IC50 was 1.6 nM.
In turn, B2 yielded an IC50 of 3 nM.
For B4, the IC50 worked out at 3.1 nM.
B5: the IC50 amounted to 7.6 nM.
For the molecule B6, the IC50 turned out to be 3.3 nM.
B7 had an IC50 of 6.1 nM.
With B8, the IC50 is 2.4 nM.

Substrate in a further experiment: I domain-GST, recombinant GST fusion protein containing amino acids 127-340 of the human VLA-1 α1 subunit (human) (UniProt P56199)
The experiment is described as follows: competition: I domain-GST binding to immobilized collagen IV, anti-GST-HRP.
Take B1: the IC50 came to 3.2 nM.
Turning to B2, the IC50 stood at 7.4 nM.
Same read-out and setting: for B4 the value was 5.5 nM; for B5, 12 nM.
As for B6, the IC50 turned out to be 7.6 nM.
Same read-out and setting: for B7 the value was 9.8 nM; for B8, 6.4 nM.

Substrate in another experiment: I domain-GST, recombinant GST fusion protein containing amino acids 127-340 of the human VLA-1 α1 subunit (human) (UniProt P56199)
The experiment is described as follows: SPR, mAb captured on anti-human IgG, I domain-GST in solution, no Mg2+, titration screen (*).
Consider B6, for which the Kd was determined as 0.574 nM, the koff was found to be 7.08e-05 s⁻¹ and the kon worked out at 123000 M⁻¹ s⁻¹.
Take B8: the koff came to 8.22e-05 s⁻¹ and the kon was determined as 134000 M⁻¹ s⁻¹.

Substrate in a further experiment: I domain-GST, recombinant GST fusion protein containing amino acids 127-340 of the human VLA-1 α1 subunit (human) (UniProt P56199)
The experiment in a line: SPR, mAb captured on anti-human IgG, I domain-GST in solution, 1 mM Mg2+, titration screen (*).
With B4, the Kd was 0.068 nM, the koff was 3.1e-05 s⁻¹ and the kon was determined as 453000 M⁻¹ s⁻¹.
For B5, the Kd came to 0.255 nM, the koff is 0.000136 s⁻¹ and the kon came out at 533000 M⁻¹ s⁻¹.
Turning to B6, the Kd turned out to be 0.138 nM, the koff turned out to be 7.2e-05 s⁻¹ and the kon is 523000 M⁻¹ s⁻¹.
Turning to B7, the Kd came to 0.216 nM, the dissociation rate constant (koff) was 0.000121 s⁻¹ and the kon came to 561000 M⁻¹ s⁻¹.
Consider B9, for which the Kd worked out at 0.025 nM, the koff amounted to 8e-06 s⁻¹ and the kon stood at 318000 M⁻¹ s⁻¹.
Turning to B8, the Kd was found to be 0.117 nM, the koff was 3.77e-05 s⁻¹ and the kon came out at 321000 M⁻¹ s⁻¹.

Substrate in another experiment: I domain-GST, recombinant GST fusion protein containing amino acids 127-340 of the human VLA-1 α1 subunit (human) (UniProt P56199)
The experiment in a line: SPR, mAb captured on anti-human IgG, I domain-GST in solution, no Mg2+.
As for B10, the Kd amounted to 1.69 nM, the koff turned out to be 0.000243 s⁻¹ and the association rate constant (kon) was 144000 M⁻¹ s⁻¹.
Regarding B11, the Kd worked out at 4.62 nM, the koff was 0.00211 s⁻¹ and the kon amounted to 456000 M⁻¹ s⁻¹.
For B2, the Kd turned out to be 0.478 nM, the koff is 5.93e-05 s⁻¹ and the kon came to 124000 M⁻¹ s⁻¹.
B4: the Kd was determined as 1.04 nM, the koff was 0.000173 s⁻¹ and the kon was determined as 166000 M⁻¹ s⁻¹.
With B5, the Kd was found to be 1.63 nM, the koff worked out at 0.000154 s⁻¹ and the kon was found to be 94600 M⁻¹ s⁻¹.
For B9, the Kd was found to be 0.889 nM, the koff was 0.000208 s⁻¹ and the kon is 234000 M⁻¹ s⁻¹.
For the molecule B3, the Kd was determined as 1.46 nM, the koff worked out at 0.000111 s⁻¹ and the kon is 75800 M⁻¹ s⁻¹.

One may read the Kd as a measure of binding affinity in units of concentration. By koff is commonly meant the rate constant with which the complex falls apart. One may read the kon as the rate constant with which the complex forms. The term IC50 denotes the point on the concentration scale where inhibition reaches its midpoint.
